Measurements as given in the supplement of paper PMC12667976.
± gives the standard error.

B1: library; numbered along this chain (parent)
chain: MATDAALRRLLRLHRTEIAVAVDSAFPLLHALADHDVVPEDKFQETLHLKEKEGCPQAFHALLSWLLTQDSTAILDFWRVLFKDYNLERYGRLQPILDSFPKDVDLSQPRKGRKPPAVPKALVPPPRLPTKRKASEEARAAAPAALTPRGTASPGSQLKAKPPKKPESSAEQQRLPLGNGIQTMSASVQRAVAMSSGDVPGARGAVEGILIQQVFESGGSKKCIQVGGEFYTPSKFEDSGSGKNKARSSSGPKPLVRAKGAQGAAPGGGEARLGQQGSVPAPLALPSDPQLHQKNEDECAVCRDGGELICCDGCPRAFHLACLSPPLREIPSGTWRCSSCLQATVQEVQPRAEEPRPQEPPVETPLPPGLRSAGEEVRGPPGEPLAGMDTTLVYKHLPAPPSAAPLPGLDSSALHPLLCVGPEGQQNLAPGARCGVCGDGTDVLRCTHCAAAFHWRCHFPAGTSRPGTGLRCRSCSGDVTPAPVEGVLAPSPARLAPGPAKDDTASHEPALHRDDLESLLSEHTFDGILQWAIQSMARPAAPFPS

Variants of: B1
Test: AIRE transcriptional activation functional score (insulin promoter-GFP; nonsense median 0, synonymous median 1) (normalised score); higher = higher AIRE activity (more reporter activation)
Conditions: with insulin promoter-GFP reporter in HEK293
Description: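 Deep mutational scan of full-length human AIRE (codon-optimized cDNA, DT-POPCode NNN libraries over three regions) integrated at a Bxb1 landing pad in HEK293 cells carrying an insulin core promoter-GFP reporter at a Flp-In site. Cells were sorted for the top 10% GFP about 14 days after transfection. Variant frequency log-ratios (select vs non-select, TileSeq) were rescaled so that the nonsense median is 0 and the synonymous median is 1, then averaged over biological replicates.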

Point of comparison: S412D, “AIRE transcriptional activation functional score” value 0.652 ± 0.19. Against it:
- K259F — higher, 1.08 ± 0.035
- V393R — lower, 0.0991 ± 0.16
- K164D — lower, -0.844 ± 0.5
- K164H — higher, 1.27 ± 0.18
- A264Y — lower, -0.0795 ± 0.11
- S99V — within error, 0.813 ± 0.53
- E237M — higher, 1.3 ± 0.031
- S250Q — lower, -0.615 ± 0.34
- S250M — higher, 1.68 ± 0.041
- L285G — within error, 0.429 ± 0.3
- P115R — within error, 0.784 ± 0.41
- K52S — within error, 0.883 ± 0.3
- K52I — within error, 0.794 ± 0.38
- K52G — within error, 0.435 ± 0.41
- Q69M — lower, -0.732 ± 0.14
- A343R — within error, 0.816 ± 0.16
- T447L — higher, 1.2 ± 0.25
- S169K — within error, 1.77 ± 1.8
- R328L — higher, 1.08 ± 0.21
- R127P — within error, 0.804 ± 0.38
- C337Y — higher, 1.07 ± 0.12
- D76W — within error, 0.516 ± 0.083
- D76G — lower, -0.331 ± 0.51
- A19T — lower, -0.102 ± 0.31
- D288V — higher, 1.14 ± 0.17
- D288T — within error, 0.903 ± 0.2
- N86V — higher, 1.33 ± 0.45
- S518V — higher, 1.12 ± 0.085
- P166N — higher, 1.41 ± 0.1
- A58F — lower, 0.0934 ± 0.1
- L177S — within error, 0.553 ± 0.33
- R445I — higher, 0.985 ± 0.14
- V345D — within error, 1.02 ± 0.18
- K395M — higher, 2.5 ± 0.11
- T504L — within error, 0.843 ± 0.21
- Y85S — lower, 0.113 ± 0.28
- T480P — within error, 1.05 ± 0.32
- T480S — within error, 0.786 ± 0.59
- T480D — within error, 0.65 ± 0.2
- Q530H — higher, 1.21 ± 0.032
- G112H — within error, 0.912 ± 0.48
- G112K — within error, 0.268 ± 0.48
- P384I — higher, 0.998 ± 0.15
- P384M — higher, 1.35 ± 0.079
- P490A — within error, 0.812 ± 0.14
- G424R — within error, 1.03 ± 0.21
- A493W — higher, 0.996 ± 0.11
- P119L — within error, 0.904 ± 0.3
- K131A — lower, 0.284 ± 0.099
- P401L — within error, 0.646 ± 0.35
- L97I — within error, -0.239 ± 0.83
- G382S — within error, 0.979 ± 0.19
- F543N — within error, 0.535 ± 0.17
- P360A — within error, 0.888 ± 0.13
- A121V — within error, 0.67 ± 0.31
- D105T — within error, 0.553 ± 0.56
- A265M — higher, 1.55 ± 0.059
- H396E — lower, -0.185 ± 0.093
- H396P — within error, 1.02 ± 0.38
- P315I — higher, 1 ± 0.11
- I528D — lower, 0.302 ± 0.12
- L519E — within error, 0.874 ± 0.093
- L519H — lower, -0.138 ± 0.072
- H523Y — higher, 1.33 ± 0.074
- Q44R — within error, 0.783 ± 0.72
- R433K — higher, 1.03 ± 0.12
- R433N — higher, 1.15 ± 0.071
- R433Q — within error, 1.13 ± 0.34
- L308V — higher, 1.16 ± 0.19
- K133N — lower, -0.0115 ± 0.23
- Q346I — higher, 1.01 ± 0.16
- Q346D — higher, 1.46 ± 0.052
- Q346C — within error, 0.884 ± 0.091
- P416S — higher, 1.09 ± 0.21
- R79F — within error, 0.705 ± 0.11
- P143Q — higher, 1.33 ± 0.33
- I209D — within error, 0.64 ± 0.12
- I209G — within error, 0.579 ± 0.18
- P499S — higher, 1.1 ± 0.15
- A352E — within error, 0.933 ± 0.14
- A352Q — within error, 0.697 ± 0.051
- G228E — within error, 0.668 ± 0.36
- G228R — higher, 1.26 ± 0.3
- G228F — lower, 0.331 ± 0.12
- A73L — within error, 0.61 ± 0.97
- L49D — lower, -0.689 ± 0.07
- I181Q — lower, -0.331 ± 0.19
- I181E — within error, 0.0205 ± 0.7
- A432P — within error, 0.463 ± 0.084
- A432G — higher, 1.22 ± 0.11
- K120A — within error, 0.814 ± 0.64
- G431E — within error, 0.793 ± 0.22
- S535T — within error, 0.745 ± 0.39
- R456T — higher, 1.32 ± 0.049
- C457I — lower, -0.23 ± 0.29
- G527I — within error, 1.02 ± 0.76
- G527K — lower, 0.173 ± 0.081
- E88M — lower, 0.132 ± 0.046
- F236L — within error, 0.651 ± 0.31
- S71Q — higher, 2.02 ± 0.16
- C419H — within error, 0.558 ± 0.21
- C419N — lower, 0.258 ± 0.13
- L32T — lower, -0.512 ± 0.21
- L32M — lower, -0.0821 ± 0.26
- P154Y — higher, 1.68 ± 0.36
- P154N — within error, 0.642 ± 0.3
- Q172N — within error, 0.691 ± 0.23
- A284V — higher, 1.06 ± 0.16
- L28H — lower, -2.61 ± 0.94
- P466Y — higher, 1.21 ± 0.21
- P466L — higher, 1.1 ± 0.16
- S287W — higher, 1.12 ± 0.057
- Q173R — higher, 1.67 ± 0.6
- L93D — lower, -0.0637 ± 0.46
- L93W — lower, 0.0522 ± 0.035
- L291R — within error, 0.656 ± 0.47
- E167W — higher, 2.34 ± 0.058
- G369K — higher, 1.35 ± 0.088
- P331G — within error, 1.07 ± 0.46
- P331R — higher, 1.41 ± 0.2
- S196P — within error, 0.792 ± 0.17
- R12H — lower, -0.211 ± 0.16
- D36P — within error, 0.171 ± 0.53
- P422E — within error, 0.766 ± 0.16
- P422W — higher, 1.69 ± 0.047
- V377Q — within error, 0.854 ± 0.047
- V377L — higher, 1.19 ± 0.34
- L366S — within error, 0.837 ± 0.26
- V80G — within error, 0.653 ± 0.33
- G155A — higher, 1.44 ± 0.52
- D526V — lower, -0.011 ± 0.095
- G408Y — higher, 1.08 ± 0.083
- S135P — lower, 0.181 ± 0.27
- L529Y — within error, 0.598 ± 0.66
- L529H — lower, -0.499 ± 0.13
- L529C — within error, 0.595 ± 0.044
- S107D — within error, 0.707 ± 0.52
- S107K — within error, 0.75 ± 0.073
- S107P — within error, 0.096 ± 0.85
- P56V — within error, 0.829 ± 0.67
- P56T — within error, 0.544 ± 0.39
- E383H — within error, 0.859 ± 0.16
- E522W — lower, -1.23 ± 0.14
- E522R — lower, -0.0906 ± 0.24
- S521T — within error, 1.08 ± 0.24
- P380I — higher, 1.14 ± 0.28
- R371M — lower, -0.128 ± 0.13
- P27R — within error, 0.196 ± 0.62
- D34I — lower, -0.247 ± 0.39
- A537P — within error, 0.545 ± 0.38
- A537S — higher, 1.1 ± 0.22
- A537M — within error, 0.458 ± 0.034
- A537T — higher, 1.41 ± 0.19
- D70N — within error, 0.992 ± 0.43
- S332M — lower, -0.16 ± 0.054
- S185I — within error, 0.353 ± 0.38
- Q262S — within error, 0.84 ± 0.43
- P365V — within error, 0.952 ± 0.32
- P365D — lower, 0.214 ± 0.23
- P365L — within error, 1.07 ± 0.28
- P365K — higher, 1.17 ± 0.27
- V479G — within error, 0.838 ± 0.33
- V479C — higher, 1.15 ± 0.25
- H292E — lower, -0.172 ± 0.071
- H292T — within error, 1.13 ± 0.32
- E423A — higher, 1.2 ± 0.1
